According to patent CN108753792A (UNIV SUN YAT SEN, dated 2018):

Legend:
[1] = molecular target: T1, MBP (UniProt P0AEX9 27-396 = MBP); assay: Native-PAGE mobility shift, Coomassie staining (Fig. 6D)
[2] = molecular target: T1, MBP; assay: Native-PAGE mobility shift, Coomassie staining (Fig. 6C)

Row | Binder | binding result [1] | binding result [2]
1 | 绿色荧光蛋白(GFP)纳米抗体 D5 (VHH, biotinylated (Sulfo-NHS-LC-biotin kit) in the ELISA of Example 5; not biotinylated in the Native-PAGE of Example 6, Printed molecular weight 16.6 KDa; also called D5抗体; D5-biotin; not shown: Flag tag from vector pBAD24-Flag-His; C-terminal 6xHis tag from vector pBAD24-Flag-His) VHH: DVQLQESGGGLVQPGGSLRLSCAASGIIFSIYDMGWYRQAPGKQRELVALITIHRSTNYEDSVKGRFTISRDNAKNTVYLQMNSLKPEDTAVYYCNANGVNYQYWGQGTQVTVSS | no binding (tested: 3μg MBP和3μg纯化的纳米抗体) | –
2 | 绿色荧光蛋白(GFP)纳米抗体 E6 (VHH, biotinylated (Sulfo-NHS-LC-biotin kit) in the ELISA of Example 5; not biotinylated in the Native-PAGE of Example 6, Printed molecular weight 18.4 KDa; also called E6抗体; pBAD24-Flag-E6-His; not shown: Flag tag from vector pBAD24-Flag-His; C-terminal 6xHis tag from vector pBAD24-Flag-His) VHH: DVQLQESGGGLVQAGGSLRLSCAASGRFVSSYIMGWFRQAPGKEREAVASILRSVDATYYADSVKGRFTISRDNDKNTVYLQMNSLKPEDTAVYYCATRARGYFGSFGRLWPDDRQYDYWGQGTQVTVSS | no binding (tested: 3μg MBP和3μg纯化的纳米抗体) | –
3 | 绿色荧光蛋白(GFP)纳米抗体 A12 (VHH, biotinylated (Sulfo-NHS-LC-biotin kit) in the ELISA of Example 5; not biotinylated in the Native-PAGE of Example 6, Printed molecular weight 15.7 KDa; also called A12抗体; pADL-10b-A12-His; not shown: C-terminal 6xHis tag from vector pADL-10b-His) VHH: DVQLQESGGGLVQAGGSLRLSCAASGGTFSILSLGWFRQAPGKEREFVAAISRSEGSTDYADFVKGRFMISRENAKNTAYLQMNSLKPEDTAVYFCAASYARRLSTTASRVLYWGQGTQVTVSS | – | no binding (tested: 3μg MBP和3μg纯化的纳米抗体)
